Test results published in paper PMC11172107.

Biological target: T1, ArgR-His6 (Vibrio fluvialis 85003) (UniProt A0AAX2LJS0)
T1 sequence: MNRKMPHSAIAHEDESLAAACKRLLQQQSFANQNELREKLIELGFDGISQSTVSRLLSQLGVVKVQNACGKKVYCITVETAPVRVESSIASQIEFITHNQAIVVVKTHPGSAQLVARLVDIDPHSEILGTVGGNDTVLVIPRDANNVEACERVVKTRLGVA
Assay: EMSA
Settings: EMSA: 20 mM Tris/HCl pH 7.6, 50 mM KCl, 1 mM EDTA, 5% glycerol, 200 ng BSA, 500 ng dI-dC, 15 ng probe, 30 C 20 min; footprinting: 5.40 uM ArgR-His6, 40 uL …

Sequence: CCGCAGGCTCTTTAGAATTTCTTTAACGATGAAGTGAAATTCACTTTATCACCATGAATAACAATAAAAGTTTTCACCATATTTATTACAAGTCCTAAGCTTTATTCCACGAAATACGTTGCCATATTGAATAGTATTGCAATAAACGTTTTCTAAATGAGTGAATTGAGGTGTGGG (double strand) [arcD2 probe]
- binding: binds
